Reference: IntAct's records for PubMed 29374201

B1: Complement factor H (Homo sapiens), P08603 (parent)
chain: MRLLAKIICLMLWAICVAEDCNELPPRRNTEILTGSWSDQTYPEGTQAIYKCRPGYRSLGNVIMVCRKGEWVALNPLRKCQKRPCGHPGDTPFGTFTLTGGNVFEYGVKAVYTCNEGYQLLGEINYRECDTDGWTNDIPICEVVKCLPVTAPENGKIVSSAMEPDREYHFGQAVRFVCNSGYKIEGDEEMHCSDDGFWSKEKPKCVEISCKSPDVINGSPISQKIIYKENERFQYKCNMGYEYSERGDAVCTESGWRPLPSCEEKSCDNPYIPNGDYSPLRIKHRTGDEITYQCRNGFYPATRGNTAKCTSTGWIPAPRCTLKPCDYPDIKHGGLYHENMRRPYFPVAVGKYYSYYCDEHFETPSGSYWDHIHCTQDGWSPAVPCLRKCYFPYLENGYNQNYGRKFVQGKSIDVACHPGYALPKAQTTVTCMENGWSPTPRCIRVKTCSKSSIDIENGFISESQYTYALKEKAKYQCKLGYVTADGETSGSITCGKDGWSAQPTCIKSCDIPVFMNARTKNDFTWFKLNDTLDYECHDGYESNTGSTTGSIVCGYNGWSDLPICYERECELPKIDVHLVPDRKKDQYKVGEVLKFSCKPGFTIVGPNSVQCYHFGLSPDLPICKEQVQSCGPPPELLNGNVKEKTKEEYGHSEVVEYYCNPRFLMKGPNKIQCVDGEWTTLPVCIVEESTCGDIPELEHGWAQLSSPPYYYGDSVEFNCSESFTMIGHRSITCIHGVWTQLPQCVAIDKLKKCKSSNLIILEEHLKNKKEFDHNSNIRYRCRGKEGWIHTVCINGRWDPEVNCSMAQIQLCPPPPQIPNSHNMTTTLNYRDGEKVSVLCQENYLIQEGEEITCKDGRWQSIPLCVEKIPCSQPPQIEHGTINSSRSSQESYAHGTKLSYTCEGGFRISEENETTCYMGKWSSPPQCEGLPCKSPPEISHGVVAHMSDSYQYGEEVTYKCFEGFGIDGPAIAKCLGEKWSHPPSCIKTDCLSLPSFENAIPMGEKKDVYKAGEQVTYTCATYYKMDGASNVTCINSRWTGRPTCRDTSCVNPPTVQNAYIVSRQMSKYPSGERVRYQCRSPYEMFGDEEVMCLNGNWTEPPQCKDSTGKCGPPPPIDNGDITSFPLSVYAPASSVEYQCQNLYQLEGNKRITCRNGQWSEPPKCLHPCVISREIMENYNIALRWTAKQKLYSRTGESVEFVCKRGYRLSSRSHTLRTTCWDGKLEYPTCAKR
partner: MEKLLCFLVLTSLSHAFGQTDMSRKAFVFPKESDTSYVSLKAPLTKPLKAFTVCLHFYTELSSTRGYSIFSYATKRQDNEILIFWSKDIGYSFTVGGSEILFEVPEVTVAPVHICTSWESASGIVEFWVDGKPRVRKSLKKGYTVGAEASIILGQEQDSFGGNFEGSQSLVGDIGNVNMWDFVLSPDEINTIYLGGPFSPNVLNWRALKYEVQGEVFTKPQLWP
B2: Complement factor H (Homo sapiens), P08603-2 (parent)
chain: MRLLAKIICLMLWAICVAEDCNELPPRRNTEILTGSWSDQTYPEGTQAIYKCRPGYRSLGNVIMVCRKGEWVALNPLRKCQKRPCGHPGDTPFGTFTLTGGNVFEYGVKAVYTCNEGYQLLGEINYRECDTDGWTNDIPICEVVKCLPVTAPENGKIVSSAMEPDREYHFGQAVRFVCNSGYKIEGDEEMHCSDDGFWSKEKPKCVEISCKSPDVINGSPISQKIIYKENERFQYKCNMGYEYSERGDAVCTESGWRPLPSCEEKSCDNPYIPNGDYSPLRIKHRTGDEITYQCRNGFYPATRGNTAKCTSTGWIPAPRCTLKPCDYPDIKHGGLYHENMRRPYFPVAVGKYYSYYCDEHFETPSGSYWDHIHCTQDGWSPAVPCLRKCYFPYLENGYNQNYGRKFVQGKSIDVACHPGYALPKAQTTVTCMENGWSPTPRCIRVSFTL
partner: B1 partner
B3: Complement factor H (Homo sapiens), P08603-2 (parent)
chain: B2 chain

Variants of: B1
Details: with crp_human CRP

Row | effect of a mutation on the interaction | Variant
1 | decreasing interaction strength | Y402H

Variants of: B2
Details: with crp_human CRP

Row | effect of a mutation on the interaction | Variant
2 | decreasing interaction strength | Y402H

Variants of: B3
Details: with ptx3_human PTX3, P26022
Chain of ptx3_human PTX3, P26022 (P26022 whole entry): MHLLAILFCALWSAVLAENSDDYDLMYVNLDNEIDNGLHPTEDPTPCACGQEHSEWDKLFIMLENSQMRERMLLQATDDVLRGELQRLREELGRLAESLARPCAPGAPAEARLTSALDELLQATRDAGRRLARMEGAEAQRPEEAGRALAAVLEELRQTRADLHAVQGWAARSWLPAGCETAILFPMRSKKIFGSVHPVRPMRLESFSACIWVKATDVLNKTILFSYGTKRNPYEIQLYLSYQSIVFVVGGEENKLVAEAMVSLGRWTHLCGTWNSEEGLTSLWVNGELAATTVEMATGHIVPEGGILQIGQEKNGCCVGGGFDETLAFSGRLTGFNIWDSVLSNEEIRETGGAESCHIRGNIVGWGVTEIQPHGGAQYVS

Row | effect of a mutation on the interaction | Variant
3 | disrupting interaction strength | Y402H

Variants of: B3
Details: with ptx3_human PTX3, P26022
Remark: another data set of the same source

Row | effect of a mutation on the interaction | Variant
4 | decreasing interaction strength | Y402H
